These results are taken from article PMC3328272, “HIV-1 Nef interaction influences the ATP-binding site of the Src-family kinase, Hck” (BMC Chemical Biology, 2012).

The target in test [1] is mouse Hck SH3 domain with High Affinity RT loop (HART) (mouse) (UniProt P08103). As to the kind of experiment: SPR.
The target of test [2] is wild-type human Hck SH3 domain (human) (UniProt P08631). As to the kind of experiment: SPR. On the technique in general: SPR reads the build-up and loss of mass on a sensor chip optically.
The target in test [3] is wild-type mouse Hck SH3 domain (mouse) (UniProt P08103). As to the kind of experiment: SPR.
In test [4] the target is mouse Hck SH3 domain with High Affinity RT loop (HART) (mouse) (UniProt P08103). As to the kind of experiment: HDX-MS; SH3 (50 uM) and Nef-Consensus (117 uM) equilibrated at 4 C for at least 110 min in 20 mM Tris-HCl pH 8.3, 100 mM NaCl, 3 mM DTT; 15-fold dilution into D2O buffer; intact-protein MS; SH3 cooperative unfolding rate free and with Nef (slowdown factor).
The target of test [5] is wild-type mouse Hck SH3 domain (mouse) (UniProt P08103). The test is described as above.

Chain of wild-type mouse Hck SH3 domain (mouse) (P08103 76-136): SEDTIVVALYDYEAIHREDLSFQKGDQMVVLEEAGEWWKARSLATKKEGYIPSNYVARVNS
Chain of HIV-1 Nef-SF2, untagged (P03407 whole entry): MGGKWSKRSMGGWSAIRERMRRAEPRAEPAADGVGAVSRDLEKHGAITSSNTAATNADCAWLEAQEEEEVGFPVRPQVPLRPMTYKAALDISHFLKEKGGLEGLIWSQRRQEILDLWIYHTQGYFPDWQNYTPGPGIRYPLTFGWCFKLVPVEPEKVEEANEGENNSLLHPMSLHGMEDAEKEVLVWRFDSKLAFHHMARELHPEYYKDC
Chain of wild-type human Hck SH3 domain (human) (P08631 78-138): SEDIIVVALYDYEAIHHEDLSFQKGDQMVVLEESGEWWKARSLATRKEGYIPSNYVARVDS

In general, Kd refers to the free concentration of one partner at which half of the binding sites on the other are occupied at equilibrium, for simple one-to-one binding. A higher Kd goes with weaker binding. Usually koff stands for the first-order rate constant of dissociation. For orientation: kon means a measure of how fast the partners come together. A high value points to fast association. As to HIV-1 Nef-Consensus, untagged, the values for the equilibrium dissociation constant (Kd) in test [1], in test [2] and in test [3] were 0.02 µM, 0.12 µM and 0.08 µM, respectively. Moreover, the koff is 0.0324 s⁻¹ in test [1], 0.118 s⁻¹ in test [2] and 0.0185 s⁻¹ in test [3]. Besides, the kon in test [1] stood at 1.57e+06 M⁻¹ s⁻¹; in test [2], 1e+06 M⁻¹ s⁻¹; in test [3], 241000 M⁻¹ s⁻¹. In addition, the results for the fold decrease in SH3 unfolding rate with Nef (slowdown factor) in test [4] and in test [5] were 50 fold and 5.7 fold, respectively.

In test [1], “HIV-1 Nef-SF2, untagged (from UniProt P03407) (natural protein)” had a Kd of 0.01 µM, a koff of 0.0143 s⁻¹ and an association rate constant (kon) of 1.42e+06 M⁻¹ s⁻¹.
